Common to all, as to settings: one partner purified
Experiment [1] concerns the target T1, human oxytocin receptor (hOTR) (human, UniProt P30559 1-389).
T1 construct: oxytocin receptor, human; in membrane preparations or on cells; constructs are in the Supporting Information; source: HEK293, stably expressing; membrane preparations (radioligand assay); free-floating cells (FACS)
T1 sequence (looked up): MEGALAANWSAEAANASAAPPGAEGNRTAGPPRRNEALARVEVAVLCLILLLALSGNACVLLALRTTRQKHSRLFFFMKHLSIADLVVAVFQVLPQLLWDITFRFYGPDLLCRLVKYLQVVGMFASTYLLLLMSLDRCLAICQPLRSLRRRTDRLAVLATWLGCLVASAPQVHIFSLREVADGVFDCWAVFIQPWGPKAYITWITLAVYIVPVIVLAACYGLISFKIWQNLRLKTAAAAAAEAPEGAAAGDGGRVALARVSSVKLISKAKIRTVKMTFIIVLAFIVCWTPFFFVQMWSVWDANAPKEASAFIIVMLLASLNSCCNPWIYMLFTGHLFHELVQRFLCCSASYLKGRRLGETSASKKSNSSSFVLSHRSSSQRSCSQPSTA
Briefly: radioligand binding; displacement of [3H]-OT or [3H]-VP from membrane preparations of HEK293 cells stably expressing the human receptor; dose-response curves in duplicates, at least three independent experiments; Ki >10 µM assigned where <25% of the radioligand was displaced at 10 µM. In general terms: In a radioligand displacement assay an active substance lowers the binding of a labelled ligand.

Experiment [2] addresses T2, human vasopressin V1a receptor (hV1aR) (human, UniProt P37288 1-418).
T2 construct: vasopressin V1a receptor, human; in membrane preparations; source: HEK293, stably expressing; membrane preparations
The description is as above.

Experiment [3] addresses T3, human vasopressin V1b receptor (hV1bR) (human, UniProt P47901 1-424).
T3 construct: vasopressin V1b receptor, human; in membrane preparations; source: HEK293, stably expressing; membrane preparations
T3 sequence (looked up): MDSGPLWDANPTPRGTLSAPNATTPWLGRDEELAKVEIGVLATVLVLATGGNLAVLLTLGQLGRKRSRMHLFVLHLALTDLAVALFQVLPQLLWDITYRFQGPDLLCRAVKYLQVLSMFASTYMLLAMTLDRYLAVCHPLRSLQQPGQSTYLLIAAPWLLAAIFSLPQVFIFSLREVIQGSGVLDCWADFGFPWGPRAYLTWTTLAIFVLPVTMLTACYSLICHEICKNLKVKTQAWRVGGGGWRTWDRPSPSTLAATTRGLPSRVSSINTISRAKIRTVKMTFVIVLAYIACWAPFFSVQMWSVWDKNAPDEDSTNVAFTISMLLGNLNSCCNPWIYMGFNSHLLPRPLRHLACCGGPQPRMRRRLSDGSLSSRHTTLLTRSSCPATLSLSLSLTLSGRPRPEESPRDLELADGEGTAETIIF
The description is as above.

Experiment [4] deals with T4, murine oxytocin receptor (mOTR) (murine, UniProt P97926 1-388).
T4 construct: oxytocin receptor, murine; in membrane preparations; source: HEK293, transiently expressing; membrane preparations
T4 sequence (looked up): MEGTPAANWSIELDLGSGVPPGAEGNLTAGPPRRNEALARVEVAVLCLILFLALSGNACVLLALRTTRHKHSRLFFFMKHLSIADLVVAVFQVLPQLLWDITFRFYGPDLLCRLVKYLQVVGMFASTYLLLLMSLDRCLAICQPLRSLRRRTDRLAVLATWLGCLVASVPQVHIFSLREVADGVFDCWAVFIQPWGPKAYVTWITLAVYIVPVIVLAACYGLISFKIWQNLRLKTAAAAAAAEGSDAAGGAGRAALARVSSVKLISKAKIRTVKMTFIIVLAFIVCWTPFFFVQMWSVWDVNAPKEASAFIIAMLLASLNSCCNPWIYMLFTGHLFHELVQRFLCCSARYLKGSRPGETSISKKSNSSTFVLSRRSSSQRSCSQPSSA
Briefly: radioligand binding; displacement of [3H]-OT or [3H]-VP from membrane preparations of HEK293 cells transiently expressing the murine receptor; dose-response curves in duplicates, at least three independent experiments; Ki >10 µM assigned where <25% of the radioligand was displaced at 10 µM.

The target of experiment [5] is T5, murine vasopressin V1a receptor (mV1aR) (murine, UniProt Q62463 1-423).
T5 construct: vasopressin V1a receptor, murine; in membrane preparations; source: HEK293, transiently expressing; membrane preparations
The experiment is described as above.

Experiment [6] addresses T6, murine vasopressin V1b receptor (mV1bR) (murine, UniProt Q9WU02 1-421).
T6 construct: vasopressin V1b receptor, murine; in membrane preparations; source: HEK293, transiently expressing; membrane preparations
T6 sequence (looked up): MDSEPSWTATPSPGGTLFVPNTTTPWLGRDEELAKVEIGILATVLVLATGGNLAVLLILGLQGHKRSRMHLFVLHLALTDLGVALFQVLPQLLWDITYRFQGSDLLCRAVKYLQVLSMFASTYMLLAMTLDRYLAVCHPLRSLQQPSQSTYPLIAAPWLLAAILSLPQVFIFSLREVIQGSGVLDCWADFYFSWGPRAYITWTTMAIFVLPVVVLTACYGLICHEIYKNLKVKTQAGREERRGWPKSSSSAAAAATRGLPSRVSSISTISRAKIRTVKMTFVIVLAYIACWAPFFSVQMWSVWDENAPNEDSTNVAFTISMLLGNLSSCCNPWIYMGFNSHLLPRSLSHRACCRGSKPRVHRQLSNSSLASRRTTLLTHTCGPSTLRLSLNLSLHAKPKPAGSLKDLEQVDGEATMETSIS
Described as above.

Experiment [7] deals with T7, murine vasopressin V2 receptor (mV2R) (murine, UniProt O88721 1-371).
T7 construct: vasopressin V2 receptor, murine; in membrane preparations; source: HEK293, transiently expressing; membrane preparations
The experiment is described as above.

Here are results for 14 molecules from paper PMC12603982 (Angewandte Chemie (International Ed. in English), 2025).

Positions of bridges follow the written chain, without caps; N, C: chain ends. Non-standard residues stand in square brackets, D forms with d. Groups on a side chain read outwards from the residue. Primed or numbered codes have the meaning given here. No end group written: not given here. εdLys = D-Lys linked through its epsilon amine (k^ε); PEG5′ = PEG5 spacer, as named in the construct; Cy3s = Cy3s fluorophore, as named; Cy5s = Cy5s fluorophore, as named; Orn = NCCC[C@H](N)C(=O)O; Mpa = O=C(O)CCS

T5 sequence (Q62463 whole entry): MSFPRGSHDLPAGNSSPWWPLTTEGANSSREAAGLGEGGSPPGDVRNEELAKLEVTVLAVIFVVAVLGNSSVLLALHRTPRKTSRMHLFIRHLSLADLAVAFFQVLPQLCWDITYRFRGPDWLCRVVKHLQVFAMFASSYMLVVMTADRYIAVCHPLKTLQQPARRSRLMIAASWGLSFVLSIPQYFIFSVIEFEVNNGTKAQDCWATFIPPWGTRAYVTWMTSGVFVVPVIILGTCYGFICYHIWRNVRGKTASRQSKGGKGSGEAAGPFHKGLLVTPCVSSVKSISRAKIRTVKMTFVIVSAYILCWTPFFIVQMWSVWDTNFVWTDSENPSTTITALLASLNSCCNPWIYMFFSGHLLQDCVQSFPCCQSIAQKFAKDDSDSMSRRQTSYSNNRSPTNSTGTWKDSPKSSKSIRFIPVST
T2 sequence (P37288 whole entry): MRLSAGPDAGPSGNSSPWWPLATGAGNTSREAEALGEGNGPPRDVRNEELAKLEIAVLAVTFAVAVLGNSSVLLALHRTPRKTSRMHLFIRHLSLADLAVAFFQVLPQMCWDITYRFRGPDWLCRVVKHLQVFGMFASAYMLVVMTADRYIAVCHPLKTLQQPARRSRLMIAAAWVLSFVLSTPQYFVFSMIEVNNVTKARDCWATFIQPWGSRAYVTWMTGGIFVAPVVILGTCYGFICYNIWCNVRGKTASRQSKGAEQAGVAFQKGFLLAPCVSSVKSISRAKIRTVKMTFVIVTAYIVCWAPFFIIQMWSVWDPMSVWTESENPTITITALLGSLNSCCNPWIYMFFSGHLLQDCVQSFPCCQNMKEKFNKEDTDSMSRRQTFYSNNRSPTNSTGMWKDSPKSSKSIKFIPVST
T7 sequence (O88721 whole entry): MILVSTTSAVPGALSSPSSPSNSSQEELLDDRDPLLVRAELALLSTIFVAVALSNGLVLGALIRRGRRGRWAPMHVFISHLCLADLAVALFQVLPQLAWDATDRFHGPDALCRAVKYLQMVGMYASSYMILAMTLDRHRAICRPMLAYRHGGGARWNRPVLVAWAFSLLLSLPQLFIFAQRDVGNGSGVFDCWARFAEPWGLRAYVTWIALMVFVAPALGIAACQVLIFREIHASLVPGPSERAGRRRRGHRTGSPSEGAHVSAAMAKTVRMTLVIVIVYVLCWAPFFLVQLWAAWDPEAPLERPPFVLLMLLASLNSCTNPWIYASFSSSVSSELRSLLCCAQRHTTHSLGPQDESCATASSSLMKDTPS

B1: scrambled cyclic tracer dCINYQCP(Orn)G‐[d‐PEG5‐k^ε‐Cy3s]^8 (peptide)
chain: [Mpa]INYQCP[Orn]([dD-PEG5′-εdLys-Cy3s])G
modifications: disulfide 1-6 (inferred)
In general, Ki refers to the equilibrium dissociation constant of an inhibitor or competing ligand from its target. The low end stands for tighter binding, the high end for weaker binding. With B1, the inhibition constant Ki in experiment [1], in experiment [2], in experiment [3], in experiment [4], in experiment [5] and in experiment [6] was over 10 µM each time. Besides, the Ki in experiment [7] is over 10 µM.

B2: d(Orn)^8OT‐[Cy5s]^8 (peptide)
chain: [Mpa]YIQNCP[Orn](Cy5s)G
modifications: disulfide 1-6
As for B2, the Ki in experiment [1] was found to be 0.0009 µM; in experiment [2], 0.023 µM; in experiment [3], 0.086 µM.

B3: d(Orn)^8OT‐[PEG5‐k^ε‐Cy5s]^8 (peptide)
chain: [Mpa]YIQNCP[Orn]([PEG5′-εdLys-Cy5s])G
modifications: disulfide 1-6
For B3, the Ki in experiment [1] is 0.0012 µM; in experiment [2], 0.011 µM; in experiment [3] it was 0.176 µM.

B4: d(Orn)^8OT‐[PEG5‐Cy5s]^8 (peptide)
chain: [Mpa]YIQNCP[Orn]([PEG5′-Cy5s])G
modifications: disulfide 1-6
With B4, the Ki came out at 0.0013 µM in experiment [1], 0.07 µM in experiment [2] and 0.376 µM in experiment [3].

B5: d(Orn)^8OT‐[PEG5‐k^ε‐Cy3s]^8 (peptide)
chain: [Mpa]YIQNCP[Orn]([PEG5′-εdLys-Cy3s])G
modifications: disulfide 1-6
For the molecule B5, the inhibitory constant (Ki) in experiment [1] was found to be 0.0014 µM; in experiment [2], 0.021 µM; in experiment [3], 0.242 µM.

B6: Vasopressin (VP) (peptide)
peptide: CYFQNCPRG
notes: vasopressin (arginine at position 8), endogenous nonapeptide; numbers count on: the mature nonapeptide
As to B6, the figures for the Ki in experiment [4], in experiment [5] and in experiment [6] were 0.0081 µM, 0.001 µM and 0.0004 µM, respectively.

B7: d(Orn)^8OT‐[k^ε‐k^ε‐Cy3s]^8 (peptide)
chain: [Mpa]YIQNCP[Orn]([εdLys-εdLys-Cy3s])G
modifications: disulfide 1-6
In the case of B7, the Ki came to 0.0008 µM in experiment [1], 0.0033 µM in experiment [2] and 0.01 µM in experiment [3].

B8: d(Orn)^8OT‐[PEG5‐Cy3s]^8 (peptide)
chain: [Mpa]YIQNCP[Orn]([PEG5′-Cy3s])G
modifications: disulfide 1-6
B8: the Ki in experiment [1] was determined as 0.0015 µM; in experiment [2], 0.08 µM; in experiment [3], 0.372 µM.

B9: d(Orn)^8OT (peptide)
chain: [Mpa]YIQNCP[Orn]G
modifications: disulfide 1-6
Take B9: the Ki in experiment [1] came to 0.0007 µM; in experiment [2] it was 0.0004 µM; in experiment [3], 0.0008 µM.

B10: d(Orn)^8OT‐[d‐PEG5‐Cy5s]^8 (peptide)
chain: [Mpa]YIQNCP[Orn]([dD-PEG5′-Cy5s])G
modifications: disulfide 1-6
Turning to B10, the figures for the Ki in experiment [1], in experiment [2] and in experiment [3] were 0.006 µM, 0.553 µM and 1.31 µM, respectively.

B11: d(Orn)^8OT‐[d‐PEG5‐k^ε‐TAMRA]^8 (peptide)
chain: [Mpa]YIQNCP[Orn]([dD-PEG5′-εdLys-TAMRA])G
modifications: disulfide 1-6
For B11, the Ki in experiment [1] was found to be 0.0075 µM; in experiment [2], 0.631 µM; in experiment [3] it was 0.932 µM.

B12: d(Orn)^8OT‐[d‐PEG5‐k^ε‐AF488]^8 (peptide)
chain: [Mpa]YIQNCP[Orn]G
modifications: disulfide 1-6; not fully specified (residue 8)
B12: the Ki in experiment [1] was 0.0226 µM; in experiment [2], 1.43 µM; in experiment [3], 1.8 µM.

B13: d(Orn)^8OT‐[PEG5‐PEG5‐k^ε‐Cy3s]^8 (peptide)
chain: [Mpa]YIQNCP[Orn]([PEG5′-PEG5′-εdLys-Cy3s])G
modifications: disulfide 1-6
Regarding B13, the Ki was determined as 0.0015 µM in experiment [1], 0.022 µM in experiment [2] and 0.199 µM in experiment [3].

B14: Oxytocin (OT) (peptide)
peptide: CYIQNCPLG
notes: oxytocin, endogenous nonapeptide ligand of OTR; numbers count on: the mature nonapeptide
B14: the Ki was 1.41 µM in experiment [5], 0.416 µM in experiment [6] and 1.57 µM in experiment [7].
